Test results: paper PMC4891089, “The transcription factor GATA1 and the histone methyltransferase SET7 interact to promote VEGF-mediated angiogenesis and tumor growth and predict clinical outcome of breast cancer” (Oncotarget, 2016)

Biological target: T1, His-tagged GATA1 (UniProt P15976 1-413)
T1 construct: GATA1; also called purified His-tagged GATA1 protein; source: His fusion from pET-28a, expressed and purified according to the manufacturers' instructions (Qiagen)
Assay: pull-down; GST pull-down: purified His fusion protein incubated with GST fusion protein bound to GST beads for 4 h at 4°C; immunoblot
Settings: both partners purified

T1 sequence (P15976 whole entry, the tested form may be a part): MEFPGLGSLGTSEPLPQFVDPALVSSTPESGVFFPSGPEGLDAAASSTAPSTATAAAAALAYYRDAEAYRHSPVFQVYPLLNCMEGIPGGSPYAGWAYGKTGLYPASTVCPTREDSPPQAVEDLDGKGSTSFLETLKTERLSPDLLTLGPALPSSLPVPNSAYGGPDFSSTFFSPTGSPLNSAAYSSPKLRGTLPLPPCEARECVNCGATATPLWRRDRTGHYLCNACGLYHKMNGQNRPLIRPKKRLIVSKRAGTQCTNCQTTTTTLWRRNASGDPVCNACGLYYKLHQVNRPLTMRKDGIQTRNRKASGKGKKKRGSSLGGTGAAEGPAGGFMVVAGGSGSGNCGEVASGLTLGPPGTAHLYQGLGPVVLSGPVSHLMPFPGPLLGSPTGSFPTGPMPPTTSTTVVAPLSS

B1: GST-SET7 (enzyme, UniProt Q8WTS6 1-366, looked up)
chain: MDSDDEMVEEAVEGHLDDDGLPHGFCTVTYSSTDRFEGNFVHGEKNGRGKFFFFDGSTLEGYYVDDALQGQGVYTYEDGGVLQGTYVDGELNGPAQEYDTDGRLIFKGQYKDNIRHGVCWIYYPDGGSLVGEVNEDGEMTGEKIAYVYPDERTALYGKFIDGEMIEGKLATLMSTEEGRPHFELMPGNSVYHFDKSTSSCISTNALLPDPYESERVYVAESLISSAGEGLFSKVAVGPNTVMSFYNGVRITHQEVDSRDWALNGNTLSLDEETVIDVPEPYNHVSKYCASLGHKANHSFTPNCIYDMFVHPRFGPIKCIRTLRAVEADEELTVAYGYDHSPPGKSGPEAPEWYQVELKAFQATQQK
notes: SET7 (SETD7); also called purified GST-SET7; source: GST fusion from pGEX-KG, expressed and purified according to the manufacturers' instructions (Amersham Pharmacia)
- binding result: binds
